Laboratory results as given in patent publication US20230057987A1 (published 2023).

T1: CT45 (CT45A1, A2, A3, A5 to A10); CT45-IP peptide on HLA-A*02:01 (human)
T1 peptide: KIFEMLEGV

T2: similar peptide SP-05-0009, source protein not stated peptide on HLA-A*02:01 (human)
T2 peptide: KIIDLLPKV

T3: similar peptide SP-05-0010, source protein not stated peptide on HLA-A*02:01 (human)
T3 peptide: RIFETVNSV

T4: CT45-IP alanine variant, position 8 peptide on HLA-A*02:01 (human)
T4 peptide: KIFEMLEAV

T5: CT45-IP alanine variant, position 1 peptide on HLA-A*02:01 (human)
T5 peptide: AIFEMLEGV

T6: similar peptide SP-05-0003, source protein not stated peptide on HLA-A*02:01 (human)
T6 peptide: KVTEMLVNV

T7: similar peptide SP-05-0002, source protein not stated peptide on HLA-A*02:01 (human)
T7 peptide: KIFSGLLKV

T8: similar peptide SP-05-0001, source protein not stated peptide on HLA-A*02:01 (human)
T8 peptide: HIMEHLEGV

T9: similar peptide SP-05-0004, source protein not stated peptide on HLA-A*02:01 (human)
T9 peptide: KIWEWLVGV

T10: similar peptide SP-05-0006, source protein not stated peptide on HLA-A*02:01 (human)
T10 peptide: KIAELLENV

T11: similar peptide SP-05-0008, source protein not stated peptide on HLA-A*02:01 (human)
T11 peptide: KILDELEKV

T12: similar peptide SP-05-0007, source protein not stated peptide on HLA-A*02:01 (human)
T12 peptide: KIFPALCTV

T13: similar peptide SP-05-0005, source protein not stated peptide on HLA-A*02:01 (human)
T13 peptide: KIEEFLEAV

T14: CT45-IP alanine variant, position 5 peptide on HLA-A*02:01 (human)
T14 peptide: KIFEALEGV

B1: TCR-3 (TCR, V domains shown)
Valpha: QKITQTQPGMFVQEKEAVTLDCTYDTSDQSYGLFWYKQPSSGEMIFLIYQGSYDEQNATEGRYSLNFQKARKSANLVISASQLGDSAMYFCGYSNYQLIWGAGTKLIIKP
Vbeta: QVTQNPRYLITVTGKKLTVTCSQNMNHEYMSWYRQDPGLGLRQIYYSMNVEVTDKGDVPEGYKVSRKEKRNFPLILESPSPNQTSLYFCASREGTGGYQPQHFGDGTRLSIL
B2: TCR-1 (TCR, V domains shown)
Valpha: QTVTQSQPEMSVQEAETVTLSCTYDTSENNYYLFWYKQPPSRQMILVIRQEAYKQQNATENRFSVNFQKAAKSFSLKISDSQLGDTAMYFCAPLGLVAGSARQLTFGSGTQLTVLP
Vbeta: GVSQDPRHKITKRGQNVTFRCDPISEHNRLYWYRQTLGQGPEFLTYFQNEAQLEKSRLLSDRFSAERPKGSFSTLEIQRTEQGDSAMYLCASSTDITSYEQYFGPGTRLTVT
B3: TCR-13 (TCR, V domains shown)
Valpha: QKITQTQPGMFVQEKEAVTLDCTYDTSDQSYGLFWYKQPSSGEMIFLIYQGSYDEQNATEGRYSLNFQKARKSANLVISASQLGDSAMYFCAMSDPIMDTGRRALTFGSGTRLQVQP
Vbeta: GITQSPKYLFRKEGQNVTLSCEQNLNHDAMYWYRQDPGQGLRLIYYSQIVNDFQKGDIAEGYSVSREKKESFPLTVTSAQKNPTAFYLCASKSRGPNLADTQYFGPGTRLTVL
B4: TCR-15 (TCR, V domains shown)
Valpha: KQEVTQIPAALSVPEGENLVLNCSFTDSAIYNLQWFRQDPGKGLTSLLLIQSSQREQTSGRLNASLDKSSGRSTLYIAASQPGDSATYLCAVLLTGKLIFGQGTTLQVKP
Vbeta: GVTQTPRYLIKTRGQQVTLSCSPISGHRSVSWYQQTPGQGLQFLFEYFSETQRNKGNFPGRFSGRQFSNSRSEMNVSTLELGDSALYLCASSGGPGPSGEQYFGPGTRLTVT
B5: TCR-9 (TCR, V domains shown)
Valpha: EDVEQSLFLSVREGDSSVINCTYTDSSSTYLYWYKQEPGAGLQLLTYIFSNMDMKQDQRLTVLLNKKDKHLSLRIADTQTGDSAIYFCAEKETAGNKLTFGGGTRVLVKP
Vbeta: EPEVTQTPSHQVTQMGQEVILRCVPISNHLYFYWYRQILGQKVEFLVSFYNNEISEKSEIFDDQFSVERPDGSNFTLKIRSTKLEDSAMYFCASTVQSPRTNEQFFGPGTRLTVL
B6: TCR-2 (TCR, V domains shown)
Valpha: QKITQTQPGMFVQEKEAVTLDCTYDTSDQSYGLFWYKQPSSGEMIFLIYQGSYDEQNATEGRYSLNFQKARKSANLVISASQLGDSAMYFCAMREGSDAGGTSYGKLTFGQGTILTVHP
Vbeta: GVIQSPRHLIKEKRETATLKCYPIPRHDTVYWYQQGPGQDPQFLISFYEKMQSDKGSIPDRFSAQQFSDYHSELNMSSLELGDSALYFCASSPSTGRLNTEAFFGQGTRLTVV

Tests used:
[1] = target: T1, CT45 (CT45A1, A2, A3, A5 to A10); …; experiment: luciferase release, 24 h, 1:1; CD8+ T cells with TCR mRNA, T2 cells with titrated peptide; full-length, on cells
[2] = target: CT45-IP antigenic peptide (…) in complex with HLA-A*02 presented on cells (peptide-loaded T2 cells; NCIH1703 and A375 tumor cells) (human); experiment: cell-based or functional assay
[3] = target: CT45-IP-HLA-A*02 dextramer (human); experiment: flow cytometry, dextramer staining of TCR-mRNA electroporated T cells, gated on CD3+
[4] = target: T2, similar peptide SP-05-0009, source …; experiment: killing
[5] = target: T3, similar peptide SP-05-0010, source …; experiment: killing
[6] = target: T4, CT45-IP alanine variant, position 8 …; experiment: killing
[7] = target: T5, CT45-IP alanine variant, position 1 …; experiment: killing
[8] = target: T6, similar peptide SP-05-0003, source …; experiment: killing
[9] = target: T7, similar peptide SP-05-0002, source …; experiment: killing
[10] = target: T8, similar peptide SP-05-0001, source …; experiment: killing
[11] = target: T9, similar peptide SP-05-0004, source …; experiment: killing
[12] = target: T10, similar peptide SP-05-0006, source …; experiment: killing
[13] = target: T11, similar peptide SP-05-0008, source …; experiment: killing
[14] = target: T12, similar peptide SP-05-0007, source …; experiment: killing
[15] = target: T13, similar peptide SP-05-0005, source …; experiment: killing
[16] = target: T1, CT45 (CT45A1, A2, A3, A5 to A10); …; experiment: CT45-IP-HLA-A*02 dextramer on T cells with TCR mRNA; TCR found by tetramer sorting; full-length, on cells
[17] = target: T14, CT45-IP alanine variant, position 5 …; experiment: killing

Row | EC50 of peptide [1] [nM] | surface expression, % positive events by CT45-IP-HLA-A2*02 dextramer staining [3] [%] | dextramer-positive events [16] [%] | Binder | EC50, half maximal killing capacity (functional avidity; CT45-IP peptide titration on T2 cells, luciferase release) [2] [nM] | binding result [4] | binding result [5] | binding result [6] | binding result [7] | binding result [8] | binding result [9] | binding result [10] | binding result [11] | binding result [12] | binding result [13] | binding result [14] | binding result [15] | binding result [17]
1 | 1.02 | 27.2 | 27.2 | B1 | 1.02 | no recognition | no recognition | recognises | recognises | no recognition | no recognition | no recognition | no recognition | no recognition | no recognition | no recognition | no recognition | 
2 | 7.78 | 8.9 | 8.9 | B2 | 7.78 | no recognition | no recognition | recognises |  | no recognition | no recognition | no recognition | no recognition | no recognition | no recognition | no recognition | no recognition | 
3 | 11.4 | 53.1 | 53.1 | B3 | 11.4 | no recognition | no recognition | recognises |  | no recognition | no recognition | no recognition | no recognition | no recognition | no recognition | no recognition | no recognition | recognises
4 | 18.6 | 22.6 | 22.6 | B4 | 18.6 | no recognition | no recognition | recognises |  | no recognition | no recognition | no recognition | no recognition | no recognition | no recognition | no recognition | no recognition | 
5 | 0.15 | 44 | 44 | B5 | 0.15 | no recognition | no recognition |  |  | no recognition | no recognition | no recognition |  | no recognition | no recognition | no recognition | no recognition | 
6 | 4.69 | 39.1 | 39.1 | B6 | 4.69 | no recognition | no recognition | recognises | recognises | no recognition | no recognition | no recognition | no recognition | no recognition | no recognition | no recognition | no recognition | 
